{
  "source": "patent US12202907B2",
  "about": "“Nucleic acids encoding and methods of producing proteins comprising antibody chains” (Innate Pharma, priority 2018, dated 2025)",
  "key": {"[1]": {"molecular_target": "T1, cell-membrane bound CD39 (Homo sapiens, UniProt P49961)", "T1 sequence (P49961 1-510)": "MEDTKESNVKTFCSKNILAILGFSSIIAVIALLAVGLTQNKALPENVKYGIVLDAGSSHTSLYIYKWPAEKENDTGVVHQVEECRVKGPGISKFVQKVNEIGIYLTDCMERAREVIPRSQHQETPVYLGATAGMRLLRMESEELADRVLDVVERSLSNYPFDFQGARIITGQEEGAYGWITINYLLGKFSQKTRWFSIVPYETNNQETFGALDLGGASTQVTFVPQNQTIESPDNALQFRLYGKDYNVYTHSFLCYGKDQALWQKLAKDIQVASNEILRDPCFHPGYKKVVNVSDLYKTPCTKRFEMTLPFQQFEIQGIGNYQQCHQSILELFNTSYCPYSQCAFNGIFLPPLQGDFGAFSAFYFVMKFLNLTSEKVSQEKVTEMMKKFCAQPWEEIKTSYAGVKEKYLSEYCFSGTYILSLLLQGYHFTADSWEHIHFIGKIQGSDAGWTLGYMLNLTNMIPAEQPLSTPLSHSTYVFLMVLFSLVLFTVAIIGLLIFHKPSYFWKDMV", "assay": "Inhibition of the enzymatic activity of cellular CD39 (cells not specified)", "type": "cell-based", "protocol": "(§1) The inhibition of the CD39 enzymatic activity in CD39-expressing cells by antibodies was evaluated using Cell Titer GIo™ (Promega, reference G7571) that allows assessment of ATP hydrolysis through use of a reagent that generates a luminescent signal proportional to the amount of ATP present. The assay was thus designed to permit assessment of the inhibition of ATP hydrolyzed by CD39 in the cell culture supernatant. Briefly, 5×10^4 Ramos human lymphoma cells, 5×10^3 human CD39−, cynomolgus CD39—and mouse CD39− expressing CHO cells, were incubated 1 hour at 37° C. with anti-CD39 antibodies from 30 μg/ml to 5×10^−4 μg/ml. Cells were then incubated with 20 μM ATP for 1 additional hour at 37° C. Plates were centrifuged for 2 min at 400 g and 50 μl cell supernatant are transferred in a luminescence microplate (white wells). 50 μl CellTiter-Glo™ Reagent (CTG) was added to the supernatant and emitted light was quantified after a 5 min incubation in the dark using a Enspire™ luminometer. Anti-CD39 antibody efficacy was determined by comparing emitted light in presence of antibody with ATP alone (maximal light emission) and ATP together with cells (minimal light emission)."}, "[2]": {"molecular_target": "T2, CD39 expressed by Ramos human lymphoma cells (Homo sapiens, UniProt P49961)", "T2 construct": "cells that endogenously express CD39 at their surface; host or cells: Ramos", "T2 sequence (P49961 1-510)": "T1 sequence (P49961 1-510)", "assay": "Inhibition of the enzymatic activity of cellular CD39 in Ramos cells", "type": "cell-based", "protocol": "as §1"}, "[3]": {"test_system": "cynomolgus CD39 expressing CHO cells (CHO-cyCD39)", "assay": "Inhibition of the enzymatic activity of cellular CD39 in CHO-cyCD39", "type": "cell-based, cynomolgus (Macaca fascicularis)", "conditions": "qualitative", "protocol": "as §1"}, "[4]": {"molecular_target": "T3, Human CD39-L4 (NTPDase5, ENTPD5) (Homo sapiens, UniProt O75356)", "T3 sequence (O75356 25-428)": "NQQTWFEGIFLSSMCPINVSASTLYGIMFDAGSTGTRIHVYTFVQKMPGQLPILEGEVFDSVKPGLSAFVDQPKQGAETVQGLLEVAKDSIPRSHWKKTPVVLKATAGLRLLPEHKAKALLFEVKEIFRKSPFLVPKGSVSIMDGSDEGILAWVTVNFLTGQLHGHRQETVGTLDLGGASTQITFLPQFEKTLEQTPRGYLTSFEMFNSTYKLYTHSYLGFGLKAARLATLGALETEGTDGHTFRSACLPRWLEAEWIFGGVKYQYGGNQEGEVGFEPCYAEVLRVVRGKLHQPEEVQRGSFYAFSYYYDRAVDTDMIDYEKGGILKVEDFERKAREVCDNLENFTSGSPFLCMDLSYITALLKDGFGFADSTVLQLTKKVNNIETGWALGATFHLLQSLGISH", "assay": "ELISA titration on CD39-L4", "type": "binding", "protocol": "Antibody I-394 was tested for binding to recombinant human CD39 isoforms (Rec-huCD39 isoforms) having amino acid sequences shown below were coated in 96-well plate in PBS 1X at 500 ng/ml or 1 μg/ml at 4° C. overnight. Wells were washed in TBS Tween® 20 (polysorbate 20), and further saturated 2H at RT in TBS Blocking buffer. Dose range concentration of primary antibody was incubated in TBS blocking buffer for 2 h at RT. Wells were washed in TBS Tween® 20 (polysorbate 20). […] Optical density was measured on Enspire™ at OD=450."}, "[5]": {"test_system": "monocyte-derived DC (moDC)", "assay": "Activation of dendritic cells in the presence of ATP", "type": "cell-based, human", "conditions": "ATP 0.125 mM, 0.25 mM or 0.5 mM; I-394 at 10 μg/ml", "protocol": "Briefly, human monocytes were purified from human healthy blood and differentiated into MoDC in presence of GM-CSF and IL-4 during 6 days. […] In some cases, MoDC were preincubated for 1 hour in presence of CD39 inhibitor: […] (Tocris, 250 μM), CD73 inhibitor: APCP (Tocris 50 μM), anti-CD39 blocking antibody I-394 or BY40 (for BY40 see WO2009/095478), or anti-CD73 blocking antibodies. LPS (Invivogen, 10 ng/ml) was used as positive control. To assess resulting effect of ATP-mediated DC activation on CD4 T cells activation, ATP-activated DC were washed and then incubated with allogenic CD4 T cells (ratio 1 MoDC/4 T cells) for a mixed lymphocytes reaction (MLR) during 5 days. T cells activation and proliferation were analyzed through CD25 expression and Cell Trace Violet dilution by flow cytometry (FIG. 8)."}, "[6]": {"test_system": "CD4 or CD8 T cells", "assay": "T cell proliferation assay in the presence of added ATP", "type": "cell-based, human", "conditions": "for increase in potency of anti-CD73 antibodies: CD4 T cell proliferation", "protocol": "Peripheral blood from healthy donors was obtained from EFS, and mononuclear cells were isolated on a Ficoll™ gradient. Lymphocytes were further enriched on a 52% Percoll™ gradient by collection of the cell pellets and stained with a Cell Trace dye (Thermofisher) following the TDS provided by the manufacturer. […] to 1×10^5 of stained cells were distributed in 96 round-bottom plates, incubated for 1 hour at 37° C. with anti-huCD73 antibodies (antibody 6E1 described in WO2016/131950) and/or anti-huCD39 Abs (I-394 described herein) and activated for 3 to 5 days by addition of anti-CD3/anti-CD28-coated beads (bead:cell=1:4; Life Technologies). Inhibition of T cell proliferation was achieved by addition of ATP (200 μM). T cell proliferation and ability of Abs to block immune suppressive effect of AMP were assessed by flow cytometry by quantifying the dye dilution in the proliferating T cell subset.\nPercentage of proliferating T cells vs. anti-CD73 Ab concentration is plotted in graphs using GraphPad Prism™ software."}},
  "data": [
    {"substance": "I-394: anti-CD39 antibody, VH SEQ ID NO: 6, VL SEQ ID NO: 7, human IgG1 Fc with L234A/L235E/G237A/A330S/P331S", "values": [
      {"measurement": "potency and maximal inhibition of cellular CD39 compared to BY40", "setting": "[1]; FIG. 2A", "result": "greater potency and maximal inhibition of cellular CD39 compared to BY40"},
      {"measurement": "inhibition of cell-membrane bound (cellular) CD39 ATPase activity", "setting": "[1]; qualitative", "result": "inhibit cell-membrane bound CD39"},
      {"measurement": "inhibition maximum, cellular CD39", "setting": "[2]; Ramos cells", "result": 81.6, "unit": "%"},
      {"measurement": "potency at blocking CD39 enzymatic activity relative to other antibodies", "setting": "[2]; Ramos cells", "result": "greater potency compared to all other antibodies tested"},
      {"measurement": "blocking CD39 enzymatic activity in tumor (Ramos) cells", "setting": "[2]; qualitative", "result": "highly potent at blocking CD39 enzymatic activity"},
      {"measurement": "blocking CD39 enzymatic activity in CHO-cyCD39", "setting": "[3]", "result": "blocks CD39 enzymatic activity"},
      {"measurement": "binding to CD39-L4 in ELISA", "setting": "[4]", "result": "not to any of the isoforms CD39-L1, -L2, -L3 or -L4"},
      {"measurement": "ATP-induced moDC activation (HLA-DR or CD83 expression)", "setting": "[5]", "result": "permitted moDC activation"},
      {"measurement": "potentiation of anti-CD73 antibodies in restoring CD4 or CD8 T cell proliferation", "setting": "[6]; ATP 200 μM, combination with anti-CD73 antibody 6E1", "result": "strongly potentiation the effect of anti-CD73 antibodies in restoring CD4 or CD8 T cell proliferation"},
      {"measurement": "increase in potency of anti-CD73 antibodies", "setting": "[6]; anti-CD39 at 0.01 μg/ml", "result": "approximately 1 log"},
      {"measurement": "increase in potency of anti-CD73 antibodies", "setting": "[6]; anti-CD39 at 0.1 μg/ml", "result": "approximately 4 log"},
      {"measurement": "enhancement of CD4 or CD8 T cell proliferation, alone without anti-CD73", "setting": "[6]; concentrations of 0.1 μg/ml and 1 μg/ml, ATP 200 μM", "result": "remarkable enhancement of CD4 or CD8 T cell proliferation"}
    ]}
  ]
}
